Holding throughout (conditions): both partners purified
Assay [1] addresses T1, Full-length human plasma kallikrein, activated form (human, UniProt P03952 20-390; P03952 391-638).
T1 construct: also called pKal; active pKal; source: bought: Enzyme Research Laboratories
The assay can be described thus: SPR; BIAcore 3000, 25 °C, HBS-P; 2-chain HMWK amine-coupled on CM5 (~2000 RU); varying pKal flowed 5 min at 20 ul/min; equilibrium RU fit to Equation 3.

In assay [2] the target is T2, Full-length human plasma kallikrein, activated form (human, UniProt P03952).
T2 construct: also called pKal; active pKal; source: bought: Enzyme Research Laboratories
T2 sequence (P03952 20-390, chain 1 of 2): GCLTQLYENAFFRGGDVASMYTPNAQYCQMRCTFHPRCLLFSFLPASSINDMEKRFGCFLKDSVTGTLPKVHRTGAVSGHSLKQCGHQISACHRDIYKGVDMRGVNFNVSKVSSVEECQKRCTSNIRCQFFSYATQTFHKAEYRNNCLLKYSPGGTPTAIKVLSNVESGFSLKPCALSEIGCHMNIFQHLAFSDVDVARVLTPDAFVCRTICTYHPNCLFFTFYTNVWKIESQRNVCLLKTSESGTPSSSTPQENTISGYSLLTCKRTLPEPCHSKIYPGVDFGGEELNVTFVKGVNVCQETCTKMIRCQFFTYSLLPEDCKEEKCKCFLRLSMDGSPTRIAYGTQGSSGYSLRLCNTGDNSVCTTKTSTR
T2 sequence (P03952 391-638, chain 2 of 2): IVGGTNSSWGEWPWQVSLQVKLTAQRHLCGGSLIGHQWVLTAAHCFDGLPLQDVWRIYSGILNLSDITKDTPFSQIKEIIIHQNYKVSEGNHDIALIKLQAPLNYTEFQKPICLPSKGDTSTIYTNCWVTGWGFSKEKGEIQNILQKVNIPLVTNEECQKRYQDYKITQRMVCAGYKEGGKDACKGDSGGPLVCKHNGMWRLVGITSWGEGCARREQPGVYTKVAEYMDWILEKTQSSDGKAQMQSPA
The assay can be described thus: enzyme inhibition (steady state, tight-binding fit); purified Fab fragments on full-length pKal, potency studies like those of Fig. 2A; apparent.

Assay [3] has as its target T3, pKal from rat plasma (Rattus norvegicus, UniProt P14272).
T3 construct: also called rat pKal; source: purified from rat plasma by Athens Research and Technology
The assay is described as above.

The next assay has as its target T4, pKal from rabbit plasma (Oryctolagus cuniculus, UniProt G1T127).
T4 construct: also called rabbit pKal; source: purified from rabbit plasma by Athens Research and Technology
The assay can be described thus: enzyme inhibition (steady state, tight-binding fit); DX-2930 on purified pKal of mouse, rat, rabbit and cynomolgus monkey; apparent; data not shown.

In another assay the target is T5, purified pKal from mouse (Mus musculus, UniProt P26262).
T5 construct: also called mouse pKal
T5 sequence (P26262 20-638): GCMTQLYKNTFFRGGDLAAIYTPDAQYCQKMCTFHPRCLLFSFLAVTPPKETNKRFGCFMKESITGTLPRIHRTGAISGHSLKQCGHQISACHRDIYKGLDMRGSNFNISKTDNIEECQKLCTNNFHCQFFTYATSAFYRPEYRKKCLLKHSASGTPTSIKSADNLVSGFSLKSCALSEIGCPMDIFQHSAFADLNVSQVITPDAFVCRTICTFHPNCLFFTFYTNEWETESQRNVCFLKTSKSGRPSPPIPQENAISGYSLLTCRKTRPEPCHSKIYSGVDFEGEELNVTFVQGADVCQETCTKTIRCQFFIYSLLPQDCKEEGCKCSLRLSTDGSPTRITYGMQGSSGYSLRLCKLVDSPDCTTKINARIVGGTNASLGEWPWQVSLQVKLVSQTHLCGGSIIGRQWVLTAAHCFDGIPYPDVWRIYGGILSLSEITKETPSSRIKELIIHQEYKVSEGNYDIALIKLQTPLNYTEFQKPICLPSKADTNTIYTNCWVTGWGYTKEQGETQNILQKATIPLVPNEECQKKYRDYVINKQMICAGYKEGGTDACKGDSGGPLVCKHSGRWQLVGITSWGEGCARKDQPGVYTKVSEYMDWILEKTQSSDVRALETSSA
The description is as above.

Assay [4] deals with T3, pKal from rat plasma. The assay is described as above.
For assay [5], the target named is T6, Full-length human plasma prekallikrein (Homo sapiens, UniProt P03952).
T6 construct: human plasma prekallikrein, single-chain zymogen; also called zymogen; source: bought: Enzyme Research Laboratories
The assay can be described thus: SPR; BIAcore 3000, 25 °C, HBS-P (10 mM HEPES pH 7.4, 150 mM NaCl, 0.005% P20); DX-2930 captured on goat anti-human Fc IgG on CM5; 500 nM prekallikrein, pKal or pKal-AEBSF injected 5 min at 20 ul/min, 5 min dissociation.

For assay [6], the target named is T7, pKal complexed with 2-chain HMWK (Homo sapiens, UniProt P03952;P01042).
T7 construct: heavy chain of 2-chain HMWK, as in m6; light chain of 2-chain HMWK, as in m6; also called pKal·HMWK complex; source: bought proteins (Enzyme Research Laboratories); pKal preincubated with 600 nM (or 4.7 uM) HMWK; copies: + + +
T7 sequence (P03952 20-390, looked up, one chain of several): as the sequence (P03952 20-390, chain 1 of 2) above
The assay can be described thus: enzyme inhibition (steady state, tight-binding fit); DX-2930 IgG (up to 10 nM, 1.5-fold dilutions) incubated 1 h at 30 °C with 1 nM pKal, free or preincubated with 600 nM 2-chain HMWK, in 20 mM Tris-HCl pH 7.5, 150 mM NaCl, 1 mM EDTA, 0.1% PEG-8000, 0.1% Triton X-100; substrate H-Pro-Phe-Arg-AMC at 10, 50 or 100 uM; Ki from Ki app by Equation 2, averaged.

Changes are numbered by the printed parent chain. Numbers in names are those of the source.

The values that follow come from article PMC4156074, “Inhibition of Plasma Kallikrein by a Highly Specific Active Site Blocking Antibody” (The Journal of Biological Chemistry, 2014).

T3 sequence (P14272 20-638): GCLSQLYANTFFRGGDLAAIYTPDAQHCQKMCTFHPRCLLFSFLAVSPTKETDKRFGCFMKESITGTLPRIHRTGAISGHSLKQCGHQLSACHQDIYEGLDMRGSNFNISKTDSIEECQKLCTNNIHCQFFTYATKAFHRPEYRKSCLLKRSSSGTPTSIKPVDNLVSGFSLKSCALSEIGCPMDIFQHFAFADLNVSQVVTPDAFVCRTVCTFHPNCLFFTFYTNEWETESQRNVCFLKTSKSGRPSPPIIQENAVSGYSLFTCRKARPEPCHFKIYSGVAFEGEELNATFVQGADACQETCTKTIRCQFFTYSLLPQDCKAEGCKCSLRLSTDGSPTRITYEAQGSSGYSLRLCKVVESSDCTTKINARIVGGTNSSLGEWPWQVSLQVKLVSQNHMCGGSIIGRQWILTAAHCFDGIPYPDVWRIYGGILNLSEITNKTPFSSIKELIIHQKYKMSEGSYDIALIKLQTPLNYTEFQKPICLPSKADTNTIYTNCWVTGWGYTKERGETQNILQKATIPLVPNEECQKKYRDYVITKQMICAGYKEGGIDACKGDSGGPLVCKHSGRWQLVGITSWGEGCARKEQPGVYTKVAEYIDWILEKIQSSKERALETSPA
T1 sequence (P03952 20-390, chain 1 of 2): as the sequence (P03952 20-390, chain 1 of 2) above
T1 sequence (P03952 391-638, chain 2 of 2): as the sequence (P03952 391-638, chain 2 of 2) above

B1: 2-chain high molecular weight kininogen (treated with pKal to excise bradykinin) (natural protein, human)
chain 1: QESQSEEIDCNDKDLFKAVDAALKKYNSQNQSNNQFVLYRITEATKTVGSDTFYSFKYEIKEGDCPVQSGKTWQDCEYKDAAKAATGECTATVGKRSSTKFSVATQTCQITPAEGPVVTAQYDCLGCVHPISTQSPDLEPILRHGIQYFNNNTQHSSLFMLNEVKRAQRQVVAGLNFRITYSIVQTNCSKENFLFLTPDCKSLWNGDTGECTDNAYIDIQLRIASFSQNCDIYPGKDFVQPPTKICVGCPRDIPTNSPELEETLTHTITKLNAENNATFYFKIDNVKKARVQVVAGKKYFIDFVARETTCSKESNEELTESCETKKLGQSLDCNAEVYVVPWEKKIYPTVNCQPLGMISLMK
chain 2: SSRIGEIKEETTVSPPHTSMAPAQDEERDSGKEQGHTRRHDWGHEKQRKHNLGHGHKHERDQGHGHQRGHGLGHGHEQQHGLGHGHKFKLDDDLEHQGGHVLDHGHKHKHGHGHGKHKNKGKKNGKHNGWKTEHLASSSEDSTTPSAQTQEKTEGPTPIPSLAKPGVTVTFSDFQDSDLIATMMPPISPAPIQSDDDWIPDIQIDPNGLSFNPISDFPDTTSPKCPGRPWKSVSEINPTTQMKESYYFDLTDGLS
notes: heavy chain of human high molecular weight kininogen after excision of bradykinin; light chain of human high molecular weight kininogen after excision of bradykinin; also called 2-chain HMWK; 2-chain kininogen; source: bought: Enzyme Research Laboratories
B1 registered a dissociation constant Kd in assay [1] of 72000 pM. This lies in the double-digit nanomolar range.

B2: Fab M0201-H06 (Fab, V domains shown)
VH: EVQLLESGGGLVQPGGSLRLSCAASGFTFSHYIMMWVRQAPGKGLEWVSGIYSSGGITVYADSVKGRFTISRDNSKNTLYLQMNSLRAEDTAVYYCAYRRTGVPRRDAFDIWGQGTMVTVSS
VL: DIQMTQSPSTLSASVGDRVTITCRASQSISSWLAWYQQKPGKAPNLLIYKASTLESGVPSRFSGSGSGTEFTLTISSLQPDDFATYYCQQYNTYWTFGQGTKVEIK
notes: M0162-A04 with I103V alone in HV-CDR3; against the heavy chain of m2 it keeps T101 and A108; as the light chain of m2, germ line optimisation aside; source: E. coli, secreted, purified (protein A-Sepharose)
Regarding B2, in assay [2], the Ki is 560 pM.

B3: Fab M0162-A04 (lead Fab, parent of the affinity maturation) (Fab, V domains shown)
VH: B2 VH with V103I
VL: B2 VL
notes: as the heavy chain of m2 but with the parental HV-CDR3 residues T101, I103, A108; as the light chain of m2, germ line optimisation aside; source: E. coli, secreted, purified (protein A-Sepharose)
For B3, the Ki (in the assay with pKal from rat plasma [3]; in assay [2]) was roughly 5000 pM in each case.

B4: isolate M0199-A08 (Fab, V domains shown)
VH: B2 VH with T101I, A108E
VL: B2 VL
notes: M0162-A04 with T101I, I103V and A108E in HV-CDR3; as the heavy chain of m2 before germ line optimisation; as the light chain of m2 before germ line optimisation; also called M0199-A08 variant; source: E. coli, secreted, purified (protein A-Sepharose)
For B4, the Ki in assay [2] was 50 pM.

B5: DX-2930, fully human IgG1 monoclonal antibody (antibody, V domains shown)
VH: B2 VH with T101I, A108E
VL: B2 VL with N45K
notes: the Fab portion of the heavy chain is in the deposited structures (as the heavy chain of m2); the rest is the human IgG1 constant region (f-allotype); as the light chain of m2 in the deposited structures; IgG1 (f-allotype); Biotinylated for the ELISA on HUVEC; also called germ line-optimized M0199-A08; copies: 2 + 2
Turning to B5, the Ki with pKal from rabbit plasma was found to be 14200 pM; with purified pKal from mouse, 170 pM; with pKal from rat plasma [4] it was 170 pM; in assay [6], 115 ± 3 pM. In assay [5], the binding result was “no binding (tested: 500 nM)”.
